Results published in US20250236667A1, “ANTIBODIES TO MUTANT CALRETICULIN AND USES THEREOF” (CENTRAL ADELAIDE LOCAL HEALTH NETWORK INC, priority 2021, published 2025).

Legend:
[1] = system: TF-1 TpoR CALR^del61 cells in NSG mice; assay: Bone marrow engraftment xenograft model; assay type: in vivo
Description: All procedures were approved by the South Australian Health and Medical Research Animal Ethics Committee (Protocol SAM21-018). Bone marrow engraftment model: 4-6 week old NSG mice were x-ray irradiated with 150 cGy and 5×10^5 cells (TF-1-TpoR CALR^del61) or 5×10^4 cells (100 nM ruxolitinib resistant TF-1 TpoR CALR^del61) were intravenously injected into mice. […] Tail vein bleeds were taken at 3 weeks and analysed via flow cytometry to determine human leukaemia content in the peripheral blood. Leukemic cells were PI-, mCD45.1, hCD33+, zsGreen+. Mice were monitored daily and euthanized once clinical symptoms were observed. At the time of euthanasia, cardiac puncture was performed to obtain both peripheral blood and serum for analysis. Additionally, bone marrow from both femurs, spine and spleens were analysed for leukemic content as detailed above. Chloroma model: 4-6 week old NSG mice were anaesthetised by isoflurane inhalation and shaved on the left back/flank and 1×10^7 cells were injected into the mice. Cells were pre-treated with 20 μg/mL IgG or 4D7 for 1 hour prior to injection. […] Tumour progression was assessed through caliper measurements every 2 days. Mice were euthanised once tumours began to impede movement, show signs of ulceration or if any measurement of the tumour exceeded 30 mm (length, width or depth).

[2] = biological target: T1, mutant CALR protein (Homo sapiens, UniProt P27797); assay: Western blot detection of mutant CALR by hybridoma clones; assay type: binding
T1 construct: expressed in transfected cells; host or cells: TF-1 TpoR cells, pCX4-IRES eGFP vector
T1 sequence (P27797 with tags, fused parts or gaps limits assumed): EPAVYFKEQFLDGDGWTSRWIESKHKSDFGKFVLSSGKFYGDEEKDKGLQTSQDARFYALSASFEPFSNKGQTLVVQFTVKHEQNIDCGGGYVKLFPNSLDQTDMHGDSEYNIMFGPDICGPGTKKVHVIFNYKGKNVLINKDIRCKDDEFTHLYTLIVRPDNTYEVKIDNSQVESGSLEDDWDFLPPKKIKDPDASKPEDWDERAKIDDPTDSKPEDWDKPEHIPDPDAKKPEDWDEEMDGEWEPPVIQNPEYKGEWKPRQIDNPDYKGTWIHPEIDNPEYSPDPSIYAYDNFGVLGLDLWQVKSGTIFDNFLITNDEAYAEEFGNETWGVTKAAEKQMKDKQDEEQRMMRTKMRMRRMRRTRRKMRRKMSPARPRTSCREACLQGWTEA
Description: Rats were immunised with a CALR mutant peptide “MMRTKMRMRRMRRT RRKMRRKMSPARPRTS” coupled to KLH, this peptide sequence is unique to CALR mutant. Serum from the immunised rats was screened by enzyme linked immunoassay, to verify a strong titre to the peptide immunogen, prior to performing the hybridoma fusion. Immunised rat spleen cells were harvested and a spleen single cell suspension was combined with Sp2/O myeloma cell line. The cell mixture was treated with polyethylene glycol plus DMEM prior to been plated in 96 well flat bottom plates. The expanding hybridomas were screened initially by ELISA and the positive clones were further verified by western blot, for reactivity to the expressed CALR mutant protein before subcloning the hybridomas for antibody production.
For immunoblotting of total lysates, cells were lysed in NP40 buffer containing 150 mM NaCl, 50 mM Tris pH 7.6, 1% NP-40, supplemented with protease inhibitors (Complete, Roche) and phosphatase inhibitor cocktails, and boiled for 5 minutes after addition of sample buffer (60 mM Tris pH 6.8, 5% glycerol, 1% SDS, 2% β-mercaptoethanol, 0.02% bromophenol blue) before SDS gel electrophoresis followed by Western blotting (Tvorogov et al, 2010). Primary antibodies against pERK (#9101), pSTAT5 (#9359), ERK (#4695), Actin (#4970), Caspase 3 (#14220), wildtype CALR (#12238) were purchased from Cell Signalling. Primary antibodies against pSTATI (#612233), pSTAT3 (#612357), STATI (#610186), STAT3 (#610190), STAT5 (#610192) and Anti-phosphotyrosine 4G10 (#610012) were purchased from BD Biosciences. Mutant CALR monoclonal antibody CAL2 was purchased from Dianova (Hamburg, Germany). Immunopreciptation of TpoR was performed in standard NP40 lysis buffer with additional 50 mM iodoacetamide to avoid any de novo disulfide bond formation post lysis. To reduce IgG background during immunoprecipitation anti-FLAG conjugated to magnetic beads (Sigma, #M8823) were used. For this same reason, anti-FLAG-HRP conjugated antibodies (Sigma, #A8592) were used in western blotting.

[3] = system: wild type TF-1 TpoR expressing cells; assay: Flow cytometry of 4D7 binding to the cell surface, wild type cells; assay type: cell-based, human; settings: PE-conjugated 4D7; wild type TF-1 TpoR cells
[4] = biological target: T2, mutant CALR dimers and monomers bound to TpoR in TF-1 TpoR CALR^del61 (Homo sapiens, UniProt P27797); assay: TpoR immunoprecipitation under non-reducing conditions; assay type: cell-based; settings: 8 hour treatment with 20 μg/mL
T2 construct: expressed in transfected cells; host or cells: TF-1 TpoR CALR^del61
T2 sequence (P27797 with tags, fused parts or gaps limits assumed): T1 sequence (P27797 with tags, fused parts or gaps limits assumed)
Description: A. Cell extracts blotted for phospho-STAT5, total STAT5, phospho-ERK, total ERK and actin from TF-1 TpoR cells after incubation with 10 or 20 μg/mL 4D7 or IgG for 4 or 8 hours, in presence of TPO. The last line indicates TPO withdrawal. B. Similar experiment using TPO-independent TF-1 TpoR CALR^del61 cells. C. Similar experiment using TPO-independent TF-1 TpoR CALR^del52 cells at 8 hours. D. Fraction of apoptotic sub-Go population of TF-1 TpoR CALR^del61 cells after 48 hours of 4D7 or IgG treatment (n=3). E. Western blot showing caspase 3 cleavage occurring within 24 hours of TPO withdrawal in TPO dependent TF-1 TpoR cells. An increase in cleaved caspase 3 is observed after 48 hours of treatment with 20 μg/mL 4D7 in TF-1 TpoR CALR^del61 and TF-1 TpoR CALR^del52 cells. F. Western blot of TpoR immunoprecipitation under non-reducing conditions showing associated CALR 50 kDa monomers and 100 kDa dimers (arrowheads) present only in TF-1 TpoR CALR^del61 disrupted by 8 hour treatment with 20 μg/mL 4D7 but not PBS or 20 μg/mL IgG. CALR monomers & dimers are detectable by polyclonal anti-wild type CALR or anti-mutant CALR monoclonal antibodies. Arrowheads, detected mutant CALR protein: asterisk, non-specific bands. G. Proposed model for the mechanism of action of 4D7 on mutant CALR. […]

B1: 4D7: rat monoclonal IgG2a antibody against the mutant CALR neoepitope; VH SEQ ID NO: 5, VL SEQ ID NO: 7 (antibody, listed as Rattus rattus, V domains shown)
VH: QVQLQQSGAELAKPGSSVKISCKASGYTFTNYDMSWIKQRPGQALEWIGAINPGNGVTDYNEKFRGKATLTVDKSSSTAFMQLSSLTPEDTAVYHCAREYRDNYGYFDYWGQGVMVTVSS
VL: DIVLTQTPVSLSVTLGDQASISCRSSQSLEYSDGYTYLDWFLQKPGQSPQLLIYEVSSRFSGVPDRFIGRGSGTDFTLKISRVEPEDLGVYYCFQATHDPFTFGSGTKLEIK
For B1, the “peripheral blood engraftment of human CD33+ myeloid cells” value ([1]; 3 weeks, 12.5 mg/kg twice weekly i.p. starting day 7, P=0.01) was 0.04%, the “survival, log-rank hazard ratio” value ([1]; 4D7 vs IgG, 12.5 mg/kg twice weekly, P=0.003) was 0.24 and the “reactivity to the peptide and CALR mutant protein among hybridoma clones” value ([2]; 3 hybridoma screens, FIG. 6A) was “strongest reactivity”. The “detection of mutant CALR protein by Western blot” value ([2]; TF-1 TpoR CALR^del61 vs CALR wild type TF-1 cells) was “able to detect mutant CALR protein in CALR^del61 cells but not in CALR wild type TF-1 cells”, the “binding to the cell surface” value [3] was “but not wild type TF-1 TpoR expressing cells” and the “presence of CALR disulfide-linked dimers and CALR monomers bound to TpoR” value [4] was “diminished”.
